Several values for one entry are separate records, joined by “and”; a condition that tells them apart may be missing. Equal values may be shown once.
Assays:
Details in all cases: both partners purified
[1] = target: T1, CUL3NTD (CUL3 N-terminal domain, residues 1–388, I342R L346D) (human, UniProt Q13618 1-388, I342R | L346D); experiment: crystal structure; KEAP1_(BTB-3-box) and CUL3NTD mixed 1:1, purified by SEC; sitting drop at 20 °C, 20% PEG 3350, 10% ethylene glycol, 0.2 M potassium citrate tribasic; 3.45 Å, space group C2 2 2_(1)
T1 construct: human CUL3, Uniprot Q13618, residues 1–388, vector pNIC-CTHF, with stabilising mutations I342R and L346D (split-n-express); source: E. coli BL21(DE3)-pRARE2, purified (nickel sepharose, TEV cleavage, SEC); not shown: His6, C-terminal, cleaved; FLAG, C-terminal, cleaved

[2] = target: biotinylated CUL3NTD (residues 1–389) (human, UniProt Q13618 1-389, I342R | L346D, biotin (on the avi tag)); experiment: BLI; biotinylated CUL3NTD immobilised on streptavidin tips, KEAP1_(BTB-3-box) in serial dilution; 50 mM HEPES, 300 mM NaCl, 0.5 mM TCEP, 10 mM DTT, 0.01% TWEEN-20; steady-state and kinetic fits, 1:1 model; apparent
AF488-labeled CUL3NTD [3] = target: T2, AF488-labeled CUL3NTD (human, UniProt Q13618 1-388, I342R | L346D, AF488 by direct acylation with AF488-Tfp (sites not given)); experiment: FRET or BRET; TR-FRET protein displacement assay: CoraFluor-1-labeled KEAP1FL + AF488-labeled CUL3NTD, unlabeled protein titrated (cmax 25 μM); assay buffer pH 7.5, 2 h, room temperature; KD from IC50 by Cheng-Prusoff
T2 construct: human CUL3, Uniprot Q13618, residues 1–388, vector pNIC-CTHF, with stabilising mutations I342R and L346D; also called AF488-CUL3NTD; source: E. coli BL21(DE3)-pRARE2, purified (nickel sepharose, TEV cleavage, SEC), labeled with AF488-Tfp; not shown: His6, C-terminal, cleaved; FLAG, C-terminal, cleaved

AF488-labeled CUL3NTD [4] = target: T2, AF488-labeled CUL3NTD; experiment: FRET or BRET; TR-FRET protein displacement assay: CoraFluor-1-labeled KLHL11_(BTB-BACK) + AF488-labeled CUL3NTD, unlabeled protein titrated (cmax 25 μM); assay buffer pH 7.5, 2 h, room temperature; KD from IC50 by Cheng-Prusoff

biotinylated CUL3NTD (residues 1–389), sequence (Q13618 1-389 I342R/L346D): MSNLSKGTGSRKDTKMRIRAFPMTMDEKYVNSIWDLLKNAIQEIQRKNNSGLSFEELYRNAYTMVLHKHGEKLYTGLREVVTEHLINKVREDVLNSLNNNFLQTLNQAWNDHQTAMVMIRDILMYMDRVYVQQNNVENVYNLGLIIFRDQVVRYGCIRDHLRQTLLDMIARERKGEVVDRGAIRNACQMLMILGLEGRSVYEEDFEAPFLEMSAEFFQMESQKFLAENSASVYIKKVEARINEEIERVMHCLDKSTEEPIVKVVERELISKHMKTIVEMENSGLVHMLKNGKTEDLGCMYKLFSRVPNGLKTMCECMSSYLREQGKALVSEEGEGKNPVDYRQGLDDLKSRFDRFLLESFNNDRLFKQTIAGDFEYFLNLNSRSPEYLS
T2 sequence (Q13618 1-388 I342R/L346D): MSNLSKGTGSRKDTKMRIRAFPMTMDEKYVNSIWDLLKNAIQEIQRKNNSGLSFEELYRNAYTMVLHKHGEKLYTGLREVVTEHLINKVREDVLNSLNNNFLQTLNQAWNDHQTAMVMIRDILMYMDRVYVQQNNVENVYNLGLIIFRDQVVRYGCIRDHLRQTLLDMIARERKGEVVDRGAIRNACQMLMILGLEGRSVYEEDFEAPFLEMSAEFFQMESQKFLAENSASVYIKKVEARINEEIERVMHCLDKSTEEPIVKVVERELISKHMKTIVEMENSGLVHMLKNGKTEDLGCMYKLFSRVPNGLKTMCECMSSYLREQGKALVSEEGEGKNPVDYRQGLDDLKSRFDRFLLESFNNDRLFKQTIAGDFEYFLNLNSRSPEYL
T1 sequence (Q13618 1-388 I342R/L346D): as above

stoichiometry N [1]: 1 KEAP1 per CUL3 (printed as 2:2)
Kd [2]: 1700 nM and 1400 nM
Kd (AF488-labeled CUL3NTD [3]): 1040 nM
Kd (AF488-labeled CUL3NTD [4]): 720 nM
B1: KEAP1_(BTB-3-box) (human KEAP1 residues 48–213) (domain or fragment, UniProt Q14145 48-213, looked up)
chain: GNRTFSYTLEDHTKQAFGIMNELRLSQQLCDVTLQVKYQDAPAAQFMAHKVVLASSSPVFKAMFTNGLREQGMEVVSIEGIHPKVMERLIEFAYTASISMGEKCVLHVMNGAVMYQIDSVVRACSDFLVQQLDPSNAIGIANFAEQIGCVELHQRAREYIYMHFGE
notes: human KEAP1 (KLHL19), Uniprot Q14145, residues 48–213 (BTB and 3-box), vector pNIC28-Bsa4; Homodimer through the BTB domain by crystallographic symmetry; Residues 51–204 modelled in the structure; also called BTB and 3-box domains of human KEAP1; source: E. coli BL21(DE3)-pRARE2, purified (nickel sepharose, TEV cleavage, SEC); not shown: His6, N-terminal, cleaved

— publication PMC10564622 (Free Radical Biology & Medicine, 2023)
